Experimental findings from publication PMC9486129, “An evolutionary divergent thermodynamic brake in ZAP-70 fine-tunes the kinetic proofreading in T cells” (The Journal of Biological Chemistry, 2022) are described below.

For this assay, the target named is T1, ZAP-70 tandem SH2 domain R192A (1-256).
T1 construct: numbers count on: PDB 2OQ1 (holo-tSH2 structure); also called tSH2 R192A; C-SH2 domain mutant; source: E. coli BL21(DE3), purified (Ni-NTA, Q column, gel filtration)
The assay can be described thus: ITC; Malvern PEAQ-ITC, 20 °C; C-SH2 mutant tSH2 (R192A, printed R190A in the methods) in 20 mM Hepes pH 8.2, 150 mM NaCl, 5 mM β-mercaptoethanol; titrated with 300 μM peptide; one-site binding model; constant printed under the column Kd2. The following applies: both partners purified. (In general: ITC needs no label: the signal is the heat of the interaction.)

Where no end group is shown, it is not given here. [ ]: non-standard residue; d: D form. pY = N[C@@H](Cc1ccc(OP(=O)(O)O)cc1)C(=O)O

What is called Kd is the equilibrium constant for the complex coming apart. High values mean a looser complex, low ones a tighter complex. Molecule DGL[pY]QGLSTATKDT[pY]DALH [doubly-phosphorylated ITAM-ζ3 peptide] gave a dissociation constant Kd of 12 ± 0.9 µM.
